Measured values reported in US20170010270A1 (Chugai, published 2017).

Experiments:
[1] = target: T1, AW2, C-terminally His-tagged recombinant product of positions 1 to 196 of GPC3 (human, UniProt P51654 25-196); assay: Western blot of CHO cell pellets, reducing
T1 construct: Expressed in CHO cells; cell pellets used in reducing Western blot; Construct is stated from position 1; also called AW2 (1-196); not shown: C-terminal His tag

[2] = target: T2, AW3, C-terminally His-tagged recombinant product of positions 1 to 218 of GPC3 (human, UniProt P51654 25-218); assay: Western blot of CHO cell pellets, reducing
T2 construct: Expressed in CHO cells; cell pellets used in reducing Western blot; Construct is stated from position 1; not shown: C-terminal His tag
T2 sequence (P51654 25-218): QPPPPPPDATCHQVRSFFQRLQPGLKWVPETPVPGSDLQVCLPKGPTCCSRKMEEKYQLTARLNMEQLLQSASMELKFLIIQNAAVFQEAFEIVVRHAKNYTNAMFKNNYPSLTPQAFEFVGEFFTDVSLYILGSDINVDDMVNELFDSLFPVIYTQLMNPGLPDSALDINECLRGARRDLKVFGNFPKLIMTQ

[3] = target: T3, GPC3 peptide, amino acid position 321-350 (SEQ ID NO: 17) (human); assay: ELISA on immobilised peptide, antibody at 2 µg/mL
T3 construct: synthetic 30-residue peptide of GPC3
T3 peptide: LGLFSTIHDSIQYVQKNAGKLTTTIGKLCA
Protocol: In order to identify more detailed epitopes for the antibodies, the amino acid sequence of GPC3 was divided into peptides of 30 residues containing 10-residue overlaps, and the corresponding peptides were synthesized (SEQ ID NOs: 1 to 29 in Table 2). Each peptide thus synthesized was dissolved at a concentration of 1 mg/mL in dimethyl sulfoxide and then diluted to 1 μg/mL with PBS. The diluted peptide solution was added at 70 μL/well to a 96-well plate and immobilized thereon at room temperature for 1 hour. After removal of unimmobilized peptides, 20% Blocking-one (Nacalai Tesque, Inc.) was added thereto as a blocking buffer solution at 200 μL/well, and the plate was blocked overnight. After removal of the blocking buffer solution, each well was washed with TBS-T three times, and each antibody diluted to 2 μg/mL with a blocking buffer was then added thereto at 70 μL/well. One hour later, the antibody was removed, and each well was washed three times by the addition of TBS-T at 200 μL/well. An HRP-bound anti-mouse antibody was added at 70 μL/well to each well and reacted therewith for 1 hour. […] The reaction was terminated by the addition of 1% SDS at 70 μL/well, and the absorbance at 405 nm was measured using a plate reader.

T1 sequence (P51654 25-196): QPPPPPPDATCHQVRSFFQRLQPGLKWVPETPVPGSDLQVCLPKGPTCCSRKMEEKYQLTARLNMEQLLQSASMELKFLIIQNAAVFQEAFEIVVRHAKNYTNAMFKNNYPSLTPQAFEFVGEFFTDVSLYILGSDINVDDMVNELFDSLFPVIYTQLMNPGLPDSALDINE

B1: GT30 antibody (antibody, V domains shown)
VH: QVQLQQSGAELARPGASVKLSCRASGYTFTSYGISWMMQRTGQGLEWIGEIYPRSGITYYNEKFKGKATLTADKSSSTAYMQLSSLTSEDSAVYFCARDVSDGYLFPYWGQGTLVTVSA
VL: DIQMTQSPASLSASVGETVTITCRTSENIYSYLAWYQQKQGKSPQLLVYNAKTLPEGVPSRFSGSGSGTQFSLKINSLQPEDFGSYYCQHHYGTPPTFGGGTKLEIKR
binding result [1]: no binding
binding result [2]: no binding
binding result [3]: binds
